Experimental findings from article PMC6386588 (Molecular cell, 2019) are described below.

This assay has as its target H-Ras protein: His tagged: human wild type (MST) (human, UniProt P01112 1-189). As to the kind of experiment: MST.

Sequence of H-Ras protein: His tagged: human wild type (MST) (P01112 whole entry): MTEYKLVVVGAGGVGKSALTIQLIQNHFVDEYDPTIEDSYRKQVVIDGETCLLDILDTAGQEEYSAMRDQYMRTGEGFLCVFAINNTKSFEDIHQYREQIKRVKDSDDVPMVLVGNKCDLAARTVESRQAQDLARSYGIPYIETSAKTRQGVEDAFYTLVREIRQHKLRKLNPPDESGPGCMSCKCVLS

B1: FHH:MAPKAP1^RBD (AA279-353) (domain or fragment, UniProt Q9BPZ7 279-353, looked up)
chain: LFVRINAAHGFSLIQVDNTKVTMKEILLKAVKRRKGSQKVSGPQYRLEKQSEPNVAVDLDSTLESQSAWEFCLVR
modifications: RED-tris-NTA dye on the His tag (Monolith His-Tag Labeling Kit)
Turning to B1, the binding result is listed as “binds”.
